Measured values reported in PMC5098186, “Nuclear import of dimerized ribosomal protein Rps3 in complex with its chaperone Yar1” (Scientific Reports, 2016).

B1: Flag-Yar1 (natural protein, S. cerevisiae, UniProt P46683 1-200, looked up)
chain: MGLHSEPLDQEDQDTIILDARAGDLDSLKDIFTTLVSPELLSTCKESESDSTALHMAAANGHIETVRYILETVSRANSAEDLKAFVNEVNKTGNTALHWASLNGKLDVVKLLCDEYEADPFIRNKFGHDAIFEAENSGKEEVETYFLKKYDVEPEDDEEDTQTEGKNSVQITKGTEIEQVTKEATEALREETEKLNINKD
notes: Yar1, specific chaperone of Rps3, S. cerevisiae, recombinant
B2: His6-Rps3 (natural protein, S. cerevisiae, UniProt P05750 1-240, looked up)
chain: MVALISKKRKLVADGVFYAELNEFFTRELAEEGYSGVEVRVTPTKTEVIIRATRTQDVLGENGRRINELTLLVQKRFKYAPGTIVLYAERVQDRGLSAVAQAESMKFKLLNGLAIRRAAYGVVRYVMESGAKGCEVVVSGKLRAARAKAMKFADGFLIHSGQPVNDFIDTATRHVLMRQGVLGIKVKIMRDPAKSRTGPKALPDAVTIIEPKEEEPILAPSVKDYRPAEETEAQAEPVEA
notes: ribosomal protein Rps3 of S. cerevisiae, recombinant; also called wild-type Rps3 (of the His6-Rps3/Flag-Yar1 complex); source: E. coli BL21 (DE3) Rosetta Star, purified as His6-Rps3/Flag-Yar1 complex (Ni-NTA agarose); not shown: His6, N-terminal, kept

How the values were obtained:
Conditions in all cases: both partners purified
His6-Rps3 = target: B2; assay: pull-down; His6-Rps3/Flag-Yar1 complex immobilized via His6-Rps3 on Ni-NTA agarose, incubated with increasing amounts of purified Kap60ΔIBB for 1 h at 4 °C; eluted with 300 mM imidazole (Ni-NTA eluate); Coomassie staining
Kap60ΔIBB = target: T1, Kap60ΔIBB (S. cerevisiae, UniProt Q02821 81-542); assay: as above
T1 construct: Kap60/Srp1 (importin α) of S. cerevisiae lacking the N-terminal IBB domain (80 amino acids); also called purified Kap60ΔIBB; purified Kap60; source: E. coli BL21 (DE3) Rosetta Star, purified (glutathione-agarose, eluted with TEV protease)
T1 sequence (looked up): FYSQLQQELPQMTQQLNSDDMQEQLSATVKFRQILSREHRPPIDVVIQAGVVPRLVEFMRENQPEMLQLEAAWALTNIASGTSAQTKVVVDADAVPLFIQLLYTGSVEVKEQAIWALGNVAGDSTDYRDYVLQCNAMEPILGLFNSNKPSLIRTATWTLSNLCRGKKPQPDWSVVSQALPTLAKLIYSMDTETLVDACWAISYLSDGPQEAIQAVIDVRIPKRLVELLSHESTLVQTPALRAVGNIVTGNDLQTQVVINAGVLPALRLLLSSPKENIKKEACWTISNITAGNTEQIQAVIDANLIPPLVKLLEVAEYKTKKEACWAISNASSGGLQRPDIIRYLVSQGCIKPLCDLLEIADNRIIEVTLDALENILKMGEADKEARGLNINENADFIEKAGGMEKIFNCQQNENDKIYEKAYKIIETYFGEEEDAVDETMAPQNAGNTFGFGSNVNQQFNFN

GST-Kap123 = target: T2, GST-Kap123 (S. cerevisiae, UniProt P40069 1-1113); assay: pull-down; GST-tagged importins immobilized on glutathione-agarose beads, incubated with purified His6-Rps3/Flag-Yar1 complex or purified Flag-Yar1; 50 mM Tris pH 7.5, 150 mM NaCl, 1 mM DTT; eluted by boiling (Fig. 2b, Supplementary Fig. S2) or by TEV cleavage (Fig. 2c); Coomassie staining or Western blotting
T2 construct: Kap123 (karyopherin β4) of S. cerevisiae, recombinant; also called GST-tagged Kap123; source: E. coli BL21 (DE3) Rosetta Star, immobilized on glutathione-agarose beads
T2 sequence (looked up): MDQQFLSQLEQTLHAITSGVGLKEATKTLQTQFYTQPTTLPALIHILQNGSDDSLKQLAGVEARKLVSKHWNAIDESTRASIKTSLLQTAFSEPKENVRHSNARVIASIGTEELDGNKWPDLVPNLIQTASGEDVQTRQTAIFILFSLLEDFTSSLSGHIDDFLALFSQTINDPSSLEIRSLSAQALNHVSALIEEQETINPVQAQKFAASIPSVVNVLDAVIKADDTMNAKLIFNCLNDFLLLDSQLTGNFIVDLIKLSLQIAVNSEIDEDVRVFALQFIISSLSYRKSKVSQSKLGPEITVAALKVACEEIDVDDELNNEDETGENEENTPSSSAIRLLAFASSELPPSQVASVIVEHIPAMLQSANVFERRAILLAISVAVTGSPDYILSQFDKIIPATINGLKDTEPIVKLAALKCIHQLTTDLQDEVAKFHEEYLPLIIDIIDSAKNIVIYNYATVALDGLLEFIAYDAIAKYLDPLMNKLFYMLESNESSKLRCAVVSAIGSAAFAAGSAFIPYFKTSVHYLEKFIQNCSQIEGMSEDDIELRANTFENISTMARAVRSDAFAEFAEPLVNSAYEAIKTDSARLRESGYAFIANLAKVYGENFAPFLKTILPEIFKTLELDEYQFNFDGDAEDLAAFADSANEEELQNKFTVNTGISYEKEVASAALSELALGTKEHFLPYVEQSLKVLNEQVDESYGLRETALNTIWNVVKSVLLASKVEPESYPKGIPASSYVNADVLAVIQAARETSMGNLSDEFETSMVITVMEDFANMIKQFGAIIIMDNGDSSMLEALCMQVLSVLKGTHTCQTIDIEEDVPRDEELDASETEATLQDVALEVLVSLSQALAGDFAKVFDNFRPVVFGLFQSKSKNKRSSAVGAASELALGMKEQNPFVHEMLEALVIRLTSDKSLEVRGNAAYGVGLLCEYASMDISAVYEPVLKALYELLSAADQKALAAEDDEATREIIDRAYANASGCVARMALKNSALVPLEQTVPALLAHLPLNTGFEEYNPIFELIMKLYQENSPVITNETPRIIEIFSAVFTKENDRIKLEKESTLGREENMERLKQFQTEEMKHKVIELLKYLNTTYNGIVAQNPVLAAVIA

GST-Kap60ΔIBB = target: T3, GST-Kap60ΔIBB (S. cerevisiae, UniProt Q02821 81-542); assay: as above
T3 construct: Kap60/Srp1 (importin α) of S. cerevisiae lacking the N-terminal IBB domain (80 amino acids); GST can be removed with TEV protease; also called GST-tagged Kap60ΔIBB; source: E. coli BL21 (DE3) Rosetta Star, immobilized on glutathione-agarose beads
T3 sequence (looked up): T1 sequence (looked up)

B1: binds (His6-Rps3).

B2: binds (Kap60ΔIBB); binds (GST-Kap123); binds (GST-Kap60ΔIBB).
